Test results: the domain aggregation screens of Martell et al. (2025)

Assay: soluble fraction after stress (log2 fold change); higher = more stays soluble; pooled small domains, quantitative proteomics
Settings: stress: 50 degC
Outline: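 Quantitative proteomics served as the high-throughput read-out for pooled custom libraries of small protein domains. Each was stressed at 50°C. Aggregation propensity is expressed as the base-two log fold change in soluble protein after stress. A higher value means a larger share of the protein remains in solution.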

Sequence | soluble fraction (log2)
HMLAKRYLVYGSGSLNSAYPDTKNIAYGIDSGKGFFLVGILTENEASKLKLKGYYVIEDFPLDFH | -1.43
HMLAPLAEMRGDTLDRLEKAVLELFSSRDFHEVSLQDVARRANVSLQTIYKYFGSKEALVYTMLDTLLGR | -0.661
HMLAQVSDEGPIRAMVEAVMARSTQQLEDYKNGKVKLRQYFFGEVMKAAKGKANPTVINKLLDEMLPETL | 0.255
HMLAQYPGQVFSKEQIYNQVWKEPYYGVEDNVMSLIRRIRKKIEPDPSRPIYILTVWGIGYKFNN | -0.197
HMLARFSGIALNTWTQADVERTFGPPMLVERVARFDGDIWTYRFMDDYEPRMAHIHIDRAGTVRQLVF | -2.77
HMLAVEKIEFVGNERIAAADLESALSALYDRPMTTISDDEIAKLLSGFSLIETFTSQAEPPHTLRVNIRE | -0.141
HMLDEKFLSELMLALLRNHRRGLRAEVLLHKVRSNMELDGYKSLLVGVGRMEMWELAREIIDFVKAEG | -4.4
HMLDGFEVGMTVMRKPGTETGFTGWPPFADKDEFPVIERIDTSDSTLLLRFNDTSWWINASLVEPSDV | -1.33
HMLDIPEVGQAVQVRGRLGTVFSVAPYDGREGRLHLVTVDYLDDARPPENDEILWEIESGARILG | -0.523
HMLDLNEVEFYAIENQLKENLKIDSKRFYELVPLIKGYQEDDIIQVLRWLIDNNRIIRHKDESLTWHS | -1.61
HMLDLSEEEQKIVSILEKQGNLQINSLVVEADIPVHKINAILFELEMKGVVRVLALSLIHISEP | 0.0725
HMLDPVLQREKDESFTDYHIRLFKNKDTYHIDTKTIATLLNKDQGTNYDESKWRKDFKQYERWNDYIMSKN | 0.145
HMLDPYNVLGVPRDAGMDEIKKAYRKLSRTYHPDANIDNPNKAQAEEKFKQIQEAYQQIVKERTE | -0.384
HMLDQAVPVFETPKYAVSYIQNRLVEMKAASPEEAASRFYESISESERRGLFEALLIKEAEES | -0.00154
HMLDQGTQSRYQIMDGVRALITGDWSSHGAGLVRELSQEVARTSGLTATSERTFFVPFSALS | 0.0364
HMLDSDARRRGLIEYLSLNGYATMRQLAGEFDVSINTIQRDITYLARYYPLETAYGRYGGGVYFEQNWQ | -1.56
HMLDSGNPILPYKLSLLANVDIRTVRNAISAGELVAFKSEFDGEVYVENGSARRWLHGRRGFKPTLK | -0.84
HMLDSNILTLIKELKIRHHFTATQTHQLEKVIQQAHALGLDNSEIRSLANSSPSAKSLINDLNQKLEPLRL | -0.398
HMLDTELEANLRSQRDQKLVEELDPIVTNPLRWAELTSDKQTEWTQYRTDLLNVPQQSGFPTNVTWPEKP | 0.212

Sequence | soluble fraction (log2)
HMLDVFSAEQVADVLSVSKRNLETWANNGKLIPDFIHGEVALYSKKQLEQFEQFQRFFNSSWDAERLIQP | -0.947
HMLDVGDQLVKKLKDNDSLDFHFVNSKEANKGLKDGDYYMVITIPSNFSKNATTLLDKNPKKMVLNYTTNP | 0.0441
HMLEAKQIQDNWESLIKLIEDNFTGERKENLLKMYTHFQDRMMFAPASSKEHFHNAFPGGYVEHVL | -0.293
HMLEDIDNSIKKEIILEHYDKMLEFHGDYGAIIFRKLLHAYSKGYTGANEFRDLVNQISDKNIMRDLIESF | -1.19
HMLEEIIDVKRFLVENVRGVSEKTALAILSEFGDKTMDVLRNSPNELYRIKGMSGKRIEVIKDAIANATAS | -0.275
HMLEINTIIGNNLKKIRQEKKLTLDELAGITGVSKGMLSQIEKGTTNPTINTIWKISNGLNVPYTYLLEDD | 0.183
HMLENIVFTNKFKNKRLDVLLVDMKLVSSRQKAVSLIMRGNVFVEEERADKPGKIIKLNQTISLKK | -2.6
HMLERPLKLKSHYVSAINEKVAVQFQAGEERKSIMGTLTEVNQDTIVIDDRGSVTEIPFKSIIRAKTVF | 0.258
HMLESPVEAIIRQIKQLITNGKLKPGDRLPAERLLAENFGVGRGYVREAIMKLEFFGLLKTSPQSGTYVAG | -0.748
HMLETIDIFKVTGGEPFLSKDFLEILDLAIEKDLAKNITLMITTNASKFVKKILDKFIHFKRVEFTVS | 0.0202
HMLFGKKYLGKVPNDASGRISLWNDIVKHHQELQNIRAIENFTSDNVTVAQGDTKKAVVVTDYVT | -0.0557
HMLFQGDTPAENIILEILSKNGTTASDSIIKQSGLSVSDFNQAATMLEIKGLISNNGGNIWSL | 0.0636
HMLFVKLSDAQRSMFGAKLARDARIQSEYAQKLPSENYEVFGKALADMLLDETHFKTFYPLLVEYGYTQPK | -0.406
HMLGDIYISIPRAKLQAEEYGHSFKRELAFLAVHGFYHLLGYDHQTKEEEEVMFGKQEEVLAEFDIKR | -0.218
HMLGKNEAKEYKVAYGDIGKMPALIMGLVPLPKPPVVDERLRTLYVTATPEQHREIEAIMNRI | 0.156
HMLGKSNAERQLDLILGAIERSITGVSRSKLMQAYHLDSRGATAAFETLEQRGLITRSKSGRTELLIPTRV | -1.29
HMLGWEDVIQFEEVKGYGQHIWRDGNHLYYVTEEGGIAPQRVVYELPNELFALLESGERTQLEILSKLQ | -3.11
HMLHNEFINDRIQSAINNLSEHFKIVIILRDIQELSYEEISNIVEVPLGTIKSRINRARIQLQAELLDL | 0.269
